# Where “and” joins values, the source holds several entries; their conditions need not be identical. Identical values can stand only once. Numbered stars: 1 amine (or outer) side, 2 acyl side, 3 side chain; on linkers, the order of the positions; unused ones are H or OH. Bridge positions count the residues as written; N and C are the ends. TRITC = tetramethylrhodamine dye; Cysteamine = C(CS[*:2])N[*:1]; Ahx = NCCCCCC(=O)O
# T1: TRITC-Tn6-MDS
# T1 sequence: QWECPYGLCWIQ
# Experiments:
# clotted fibrin (human) [1] = assay: T1-weighted MR at 1.5T: percent change of signal-intensity ratio, phantom 3 (pelleted fibrin) against phantom 1 (fibrinogen), 10 µM probe, region of the pellet; 1 pre-treated with PDI and DTT is converted to EP-2104R
# clotted fibrin (human) [2] = assay: T1-weighted MR at 1.5T: percent change of signal-intensity ratio, phantom 3 (pelleted fibrin) against phantom 1 (fibrinogen), 10 µM probe, liquid above the pellet; 1 pre-treated with PDI and DTT is converted to EP-2104R
# [3] = target: DD(E), soluble protein fragment of fibrin (human) (UniProt P02671); assay: competitive displacement of TRITC-Tn6 (0.1 µM) from DD(E) (2 µM), fluorescence anisotropy, least-squares regression
# clotted fibrin (human) [4] = assay: T1-weighted MR at 1.5T: percent change of signal-intensity ratio, phantom 2 (clotted fibrin) against phantom 1 (fibrinogen), 10 µM probe
# clotted fibrin (human) [5] = assay: T1-weighted MR at 1.5T: percent change of signal-intensity ratio, phantom 3 (pelleted fibrin) against phantom 1 (fibrinogen), 10 µM probe, liquid above the pellet
# [6] = target: DD(E), soluble protein fragment of fibrin (human) (UniProt P02671); assay: competitive displacement of TRITC-Tn6 (0.1 µM) from DD(E) (2 µM), fluorescence anisotropy
# clotted fibrin (human) [7] = assay: T1-weighted MR at 1.5T: percent change of signal-intensity ratio, phantom 3 (pelleted fibrin) against phantom 1 (fibrinogen), 10 µM probe, region of the pellet
# clotted fibrin (human) [8] = assay: T1-weighted MR at 1.5T: percent change of signal-intensity ratio, phantom 2 (clotted fibrin) against phantom 1 (fibrinogen), 10 µM probe; 1 pre-treated with PDI and DTT is converted to EP-2104R
# TRITC-Tn6-MDS = tested on: T1, TRITC-Tn6-MDS
# [9] = target: DD(E), soluble protein fragment of fibrin (human) (UniProt P02671); assay: direct titration of the TRITC probe (0.1 µM) with DD(E) up to about 32 µM, fluorescence anisotropy plotted as % probe bound
# [10] = target: DD(E), soluble protein fragment of fibrin (human) (UniProt P02671); assay: fluorescence anisotropy, serial dilution of DD(E) mixed with the probe; reference is cyclic TRITC-Tn6
# Sequence of clotted fibrin (human) (P50402 whole entry, the tested form may be a part): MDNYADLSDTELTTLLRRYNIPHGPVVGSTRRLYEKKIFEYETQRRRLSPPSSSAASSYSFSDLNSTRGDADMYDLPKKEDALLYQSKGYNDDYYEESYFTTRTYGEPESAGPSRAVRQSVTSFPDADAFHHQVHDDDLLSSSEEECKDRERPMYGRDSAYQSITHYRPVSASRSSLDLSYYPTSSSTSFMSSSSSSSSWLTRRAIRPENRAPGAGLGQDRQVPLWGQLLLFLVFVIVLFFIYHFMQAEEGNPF
molecule,measurement,setting,value
EP-2104R (peptide),"%Δ SIR, lower region",clotted fibrin (human) [1],36%
same,"%Δ SIR, upper region",clotted fibrin (human) [2],-22%
same,Kd,[3],160 nM
same,%Δ SIR,clotted fibrin (human) [4],8% and 11%
same,"%Δ SIR, upper region",clotted fibrin (human) [5],-24% and -21%
same,IC50 (read off the curve),[6],2000 nM
same,"%Δ SIR, lower region",clotted fibrin (human) [7],49% and 69%
same,%Δ SIR,clotted fibrin (human) [8],12%
protein disulfide isomerase,"conversion of the mixed-disulfide form to the cyclized form, followed by LC-MS",TRITC-Tn6-MDS,"PDI alone does not promote cyclization of the probe, but PDI in the presence of a reducing agent like dithiothreitol (DTT) promotes rapid conversion of the probe to the desired product compared to DTT alone"
same,real-time change in fluorescence anisotropy in the presence of 2 µM DD(E),TRITC-Tn6-MDS,it is evident that only when both PDI and DTT are present simultaneously that the probe is efficiently activated
same,"conversion of Compound 1 to EP-2104R, followed by 1/T1 in the presence of 12.0 µM DD(E)",Compound 1,The rate of conversion of 1 to EP-2104R was most rapid for the reaction performed under condition D in which both PDI and DTT were present simultaneously
same,"conversion of Compound 1 to EP-2104R, seen as fall of the anisotropy of TRITC-Tn6 on DD(E)",Compound 1,"with 1 mg/L PDI plus 10 µM DTT the anisotropy falls from about 0.25 to about 0.183 in about 1170 s, with DTT alone only to about 0.233; with PDI alone it stays at about 0.25 like untreated"
same,"conversion of Compound 1 to EP-2104R, seen as rise of 1/T1 with 12.0 µM DD(E)",Compound 1,"with 3 mg/L PDI plus 10.0 µM DTT 1/T1 rises from about 0.69 to about 0.825 s-1 in about 3750 s, with DTT alone from about 0.65 to about 0.715 s-1; with PDI alone it stays at about 0.64 s-1 like untreated"
{TRITC-Ahx}-QWECPYGLCWIQ-NH2 (disulfide 4-9) [TRITC-Tn6 peptide (cyclic form)],Kd,[9],510 nM
{TRITC-Ahx}-QWEC(Cysteamine)PYGLC(Cysteamine)WIQ-NH2 [TRITC-Tn6-MDS],fold Kd relative to the cyclic form,[10],20 fold
same,Kd,[9],9650 nM
